Reference: publication PMC9935730, “Expression, Purification, Structural and Functional Characterization of Recombinant Human Parvulin 17” (Molecular Biotechnology, 2022)
Square brackets hold non-standard residues; d marks the D form. Primed or numbered codes have the meaning given here. * marks the point of attachment. Dabcyl′ = quencher group on the Lys side chain, CN(C)c1ccc(/N=N/c2ccc(C(=O)*)cc2)cc1; EDANS = O=S(=O)(O)c1cccc2c(NCCN*)cccc12; pS = N[C@@H](COP(=O)(O)O)C(=O)O

T1: FRET peptide substrate Ac-EK(Dabcyl)pSPRFE(EDANS)KA-NH2 (SMILES …)
T1 peptide: Ac-EK(Dabcyl′)[pS]PRFE(EDANS)KA-NH2

B1: Catalytic domain of Par17, residues 60-156 (domain or fragment)
chain: not shown
B2: Catalytic domain of Pin1, residues 50-163 (domain or fragment, human, UniProt Q13526 50-163, looked up)
chain: GEPARVRCSHLLVKHSQSRRPSSWRQEKITRTKEEALELINGYIQKIKSGEEDFESLASQFSDCSSAKARGDLGAFSRGQMQKPFEDASFALRTGEMSGPVFTDSGIHIILRTE

Target: T1, FRET peptide substrate …
Assay: cell-based or functional assay

| Binder | Km, FRET-based chymotrypsin-coupled peptidyl-prolyl cis–trans isomerase assay (values at 1 h) [µM] |
| --- | --- |
| B1 | 62.5 |
| B2 | 48.2 |
